The values that follow come from US20210155689A1 (SHANGHAI PHARMAEXPLORER, published 2021).

Residue numbers refer to the chain shown, from its start.

The target of this experiment is T1, human LAG-3 on cells (HEK293-hLAG-3 stable cell line) (human, UniProt P18627 23-525).
T1 sequence: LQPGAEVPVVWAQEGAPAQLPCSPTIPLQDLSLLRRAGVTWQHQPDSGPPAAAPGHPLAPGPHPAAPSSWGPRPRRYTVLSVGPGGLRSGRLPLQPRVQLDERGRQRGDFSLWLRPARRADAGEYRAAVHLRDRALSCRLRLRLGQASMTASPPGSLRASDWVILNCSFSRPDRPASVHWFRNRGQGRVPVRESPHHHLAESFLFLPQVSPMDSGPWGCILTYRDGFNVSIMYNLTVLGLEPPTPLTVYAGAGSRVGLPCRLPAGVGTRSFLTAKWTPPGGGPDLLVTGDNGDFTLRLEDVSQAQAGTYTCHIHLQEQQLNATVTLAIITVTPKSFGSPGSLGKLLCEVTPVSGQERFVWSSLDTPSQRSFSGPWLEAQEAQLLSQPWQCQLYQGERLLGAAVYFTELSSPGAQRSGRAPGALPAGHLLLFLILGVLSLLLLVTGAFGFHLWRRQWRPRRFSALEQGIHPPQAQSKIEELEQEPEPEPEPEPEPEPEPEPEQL
Kind of experiment: cell-based or functional assay.

B1: 556F6B8 mouse-human chimeric antibody (antibody, V domains shown)
VH: RVQLKQSGPGLVQPSQSLSITCTVSGFSLIKYGVHWVRQSPGEGLEWLGVIWRGGITDYNAAFMSRLSITKDNSKSQVFFKMNSLQADDTAIYYCAKWDGPLAMDYWGQGTSVTVSS
VL: DIVMTQSHKFLSTSVGDRVSITCKASQDVGTTVAWYQQKPGQSPKLLIYWASTRHTGVPDRFTGSGSGTDFTLTISNVQSEDLADYFCQQYSSYPYTFGGGTKLEIK
notes: also called mAb123-556F6B8; 556F8B8
In the case of B1, the “IL-2 production, antigen-specific T lymphocyte stimulation test, 0.016 ug/ml, N = 1” value (from here on “IL-2 production … 0.016 ug/ml, N = 1”) was 348 pg/mL; the “IL-2 production, antigen-specific T lymphocyte stimulation test, 0.016 ug/ml, N = 2” value (shortened to “IL-2 production … 0.016 ug/ml, N = 2”) stood at 353 pg/mL; the “IL-2 production, antigen-specific T lymphocyte stimulation test, 0.08 ug/ml, N = 1” value (“IL-2 production … 0.08 ug/ml, N = 1” below) was 499 pg/mL; the “IL-2 production, antigen-specific T lymphocyte stimulation test, 0.08 ug/ml, N = 2” value (“IL-2 production … 0.08 ug/ml, N = 2” for short) turned out to be 491 pg/mL. The “IL-2 production, antigen-specific T lymphocyte stimulation test, 0.4 ug/ml, N = 1” value (from here on “IL-2 production … 0.4 ug/ml, N = 1”) was found to be 794 pg/mL; the “IL-2 production, antigen-specific T lymphocyte stimulation test, 0.4 ug/ml, N = 2” value (“IL-2 production … 0.4 ug/ml, N = 2” for short) was found to be 599 pg/mL; the “IL-2 production, antigen-specific T lymphocyte stimulation test, 2 ug/ml, N = 1” value (“IL-2 production … 2 ug/ml, N = 1” for short) came to 818 pg/mL; the “IL-2 production, antigen-specific T lymphocyte stimulation test, 2 ug/ml, N = 2” value (shortened to “IL-2 production … 2 ug/ml, N = 2”) came to 866 pg/mL. Moreover, the “IL-2 production, antigen-specific T lymphocyte stimulation test, 10 ug/ml, N = 1” value (“IL-2 production … 10 ug/ml, N = 1” below) stood at 584 pg/mL and the “IL-2 production, antigen-specific T lymphocyte stimulation test, 10 ug/ml, N = 2” value (shortened to “IL-2 production … 10 ug/ml, N = 2”) was 722 pg/mL.

B2: 105F1E10 mouse-human chimeric antibody (antibody, V domains shown)
VH: EVQLQQSGPELVKPGASVKMSCRASGYTFTDFKMHWMKQSHGKSLEWIGYIAPNNGGTAYNQKFRGKATLTVNESSNTAYMELRSLTSEDSAVYYCVDWDDVDYWGQGTTLTVSS
VL: DIKMTQSPSSMYASLGERVTITCKASQDINSYLSWFQQKSGKSPKTLIYRANRLVDGVPSRFSGSGSGQDYSLTISSLEYEDMGIYYCLQYVEFPLTFGAGTKLELK
notes: also called mAb009-105F1E10
On to B2, for which the “IL-2 production … 0.016 ug/ml, N = 1” value amounted to 452 pg/mL; the “IL-2 production … 0.016 ug/ml, N = 2” value was 420 pg/mL; the “IL-2 production … 0.08 ug/ml, N = 1” value worked out at 437 pg/mL; the “IL-2 production … 0.08 ug/ml, N = 2” value was determined as 467 pg/mL. The “IL-2 production … 0.4 ug/ml, N = 1” value was 779 pg/mL; the “IL-2 production … 0.4 ug/ml, N = 2” value stood at 757 pg/mL; the “IL-2 production … 2 ug/ml, N = 1” value was 853 pg/mL; the “IL-2 production … 2 ug/ml, N = 2” value was found to be 792 pg/mL. Further, the “IL-2 production … 10 ug/ml, N = 1” value was determined as 850 pg/mL and the “IL-2 production … 10 ug/ml, N = 2” value was 627 pg/mL.

B3: 405B8H3 mouse-human chimeric antibody (antibody, V domains shown)
VH: QVQLQQSGAELVRPGASVTLSCKASGYTFTDYEMHWVKQTPVHGLEWIGATDPETGNSAYNQKFKGKAIMTADKSSSTAYMELRSLTSEDSAVYYCISTGWNDWGQGTSLTVSS
VL: B2 VL with S40P, N52D, V55L, E81G, V92D, L96Y, A100G, L106I
notes: also called mAb103-405B8H3
As to B3, the “IL-2 production … 0.016 ug/ml, N = 1” value is 366 pg/mL; the “IL-2 production … 0.016 ug/ml, N = 2” value was 420 pg/mL; the “IL-2 production … 0.08 ug/ml, N = 1” value stood at 666 pg/mL; the “IL-2 production … 0.08 ug/ml, N = 2” value amounted to 559 pg/mL. Besides, the “IL-2 production … 0.4 ug/ml, N = 1” value is 883 pg/mL; the “IL-2 production … 0.4 ug/ml, N = 2” value was 986 pg/mL; the “IL-2 production … 2 ug/ml, N = 1” value is 876 pg/mL; the “IL-2 production … 2 ug/ml, N = 2” value worked out at 825 pg/mL. Further, the “IL-2 production … 10 ug/ml, N = 1” value turned out to be 770 pg/mL and the “IL-2 production … 10 ug/ml, N = 2” value turned out to be 789 pg/mL.

B4: 409B11E12 mouse-human chimeric antibody (antibody, V domains shown)
VH: B3 VH with P41T, G56S, N57Y, M70L, S98A
VL: B2 VL with I2L, S40P, V55L, V92D, L96Y, A100G, L106I
notes: also called mAb104-409B11E12
Consider B4, for which the “IL-2 production … 0.016 ug/ml, N = 1” value was determined as 402 pg/mL; the “IL-2 production … 0.016 ug/ml, N = 2” value is 433 pg/mL; the “IL-2 production … 0.08 ug/ml, N = 1” value came out at 525 pg/mL; the “IL-2 production … 0.08 ug/ml, N = 2” value was found to be 555 pg/mL. Also, the “IL-2 production … 0.4 ug/ml, N = 1” value stood at 835 pg/mL; the “IL-2 production … 0.4 ug/ml, N = 2” value stood at 954 pg/mL; the “IL-2 production … 2 ug/ml, N = 1” value is 914 pg/mL; the “IL-2 production … 2 ug/ml, N = 2” value came to 915 pg/mL. Moreover, the “IL-2 production … 10 ug/ml, N = 1” value came to 671 pg/mL and the “IL-2 production … 10 ug/ml, N = 2” value turned out to be 795 pg/mL.

B5: 409D4E10 mouse-human chimeric antibody (antibody, V domains shown)
VH: B3 VH with Y27N, G56D, S58T, M70L, A72T, S98T, T99S
VL: B2 VL with S40P, V55L, V92N, L96Y, A100G, L106I
notes: also called mAb112-409D4E10
In the case of B5, the “IL-2 production … 0.016 ug/ml, N = 1” value amounted to 384 pg/mL; the “IL-2 production … 0.016 ug/ml, N = 2” value is 334 pg/mL; the “IL-2 production … 0.08 ug/ml, N = 1” value is 498 pg/mL; the “IL-2 production … 0.08 ug/ml, N = 2” value is 534 pg/mL. Also, the “IL-2 production … 0.4 ug/ml, N = 1” value amounted to 804 pg/mL; the “IL-2 production … 0.4 ug/ml, N = 2” value is 678 pg/mL; the “IL-2 production … 2 ug/ml, N = 1” value was 825 pg/mL; the “IL-2 production … 2 ug/ml, N = 2” value was found to be 673 pg/mL. Besides, the “IL-2 production … 10 ug/ml, N = 1” value was found to be 890 pg/mL and the “IL-2 production … 10 ug/ml, N = 2” value is 801 pg/mL.
